Results reported in patent US20230265151A1, “GIP/GLP1 CO-AGONIST COMPOUNDS” (priority 2020, published 2023).
Changes are numbered by the printed parent chain. *1 amine or outer side, *2 acyl side, *3 side chain or, on linkers, in order; H or OH if unused. Where no end group is shown, it is not given here. Side-chain parts run from the residue outwards. [ ]: non-standard residue; d: D form. The star is where a group is joined. αMePhe(2-F) = C[C@](N)(Cc1ccccc1F)C(=O)O; γGlu = O=C(O)[C@H](CCC(=O)[*:2])N[*:1]; C14 diacid = O=C(O)CCCCCCCCCCCCC(=O)*; αMeY = C[C@](N)(Cc1ccc(O)cc1)C(=O)O; αMeL = CC(C)C[C@](C)(N)C(=O)O; Nle = CCCC[C@H](N)C(=O)O; Orn = NCCC[C@H](N)C(=O)O; AEEA = NCCOCCOCC(=O)O; Aib = CC(C)(N)C(=O)O

B1: Example 269 (peptide)
peptide: Y[Aib]EGT[αMePhe(2-F)]TSD[Nle]SI[αMeL]LD[Orn]IAQ[Aib]EFIK([AEEA-AEEA-γGlu-C14 diacid])[αMeY]LIK([AEEA-AEEA-γGlu-C14 diacid])GGPSSGAPPPS-NH2
modifications: N-terminus assumed
SMILES: CCCC[C@H](NC(=O)[C@H](CC(=O)O)NC(=O)[C@H](CO)NC(=O)[C@@H](NC(=O)[C@](C)(Cc1ccccc1F)NC(=O)[C@@H](NC(=O)CNC(=O)[C@H](CCC(=O)O)NC(=O)C(C)(C)NC(=O)[C@@H](N)Cc1ccc(O)cc1)[C@@H](C)O)[C@@H](C)O)C(=O)N[C@@H](CO)C(=O)N[C@H](C(=O)N[C@@](C)(CC(C)C)C(=O)N[C@@H](CC(C)C)C(=O)N[C@@H](CC(=O)O)C(=O)N[C@@H](CCCN)C(=O)N[C@H](C(=O)N[C@@H](C)C(=O)N[C@@H](CCC(N)=O)C(=O)NC(C)(C)C(=O)N[C@@H](CCC(=O)O)C(=O)N[C@@H](Cc1ccccc1)C(=O)N[C@H](C(=O)N[C@@H](CCCCNC(=O)COCCOCCNC(=O)COCCOCCNC(=O)CC[C@H](NC(=O)CCCCCCCCCCCCC(=O)O)C(=O)O)C(=O)N[C@@](C)(Cc1ccc(O)cc1)C(=O)N[C@@H](CC(C)C)C(=O)N[C@H](C(=O)N[C@@H](CCCCNC(=O)COCCOCCNC(=O)COCCOCCNC(=O)CC[C@H](NC(=O)CCCCCCCCCCCCC(=O)O)C(=O)O)C(=O)NCC(=O)NCC(=O)N1CCC[C@H]1C(=O)N[C@@H](CO)C(=O)N[C@@H](CO)C(=O)NCC(=O)N[C@@H](C)C(=O)N1CCC[C@H]1C(=O)N1CCC[C@H]1C(=O)N1CCC[C@H]1C(=O)N[C@@H](CO)C(N)=O)[C@@H](C)CC)[C@@H](C)CC)[C@@H](C)CC)[C@@H](C)CC
B2: Example 261 (peptide)
peptide: YXEGTXTSDXSIXLDXKAQXEFIXXLIEGGPSSGAPPPSK
modifications: Y-Aib-EGT-αMeF(2F)-TSD-OMeY-SI-αMeL-LD-Orn-K((2-[2-(2-Amino-ethoxy)-ethoxy]-acetyl)2-(γ-Glu)-CO-(CH2)12-CO2H)AQ-Aib-EFI-(D-Glu)-αMeY-LIEGGPSSGAPPPSK((2-[2-(2-Amino-ethoxy)-ethoxy]-acetyl)2-(γ-Glu)-CO-(CH2)12-CO2H)-NH2
B3: Example 267 (peptide)
peptide: B2 peptide
modifications: Y-Aib-EGT-αMeF(2F)-TSD-OMeY-SI-αMeL-LD-Orn-K((2-[2-(2-Amino-ethoxy)-ethoxy]-acetyl)2-CO-(CH2)12-CO2H)AQ-Aib-EFI-(D-Glu)-αMeY-LIEGGPSSGAPPPSK((2-[2-(2-Amino-ethoxy)-ethoxy]-acetyl)2-CO-(CH2)12-CO2H)-NH2
B4: Example 268 (peptide)
peptide: B2 peptide with K17I, E21K
modifications: Y-Aib-EGT-αMeF(2F)-TSD-OMeY-SI-αMeL-LD-Orn-IAQ-Aib-K((2-[2-(2-Amino-ethoxy)-ethoxy]-acetyl)2-CO-(CH2)12-CO2H)FI-(D-Glu)-αMeY-LIEGGPSSGAPPPSK((2-[2-(2-Amino-ethoxy)-ethoxy]-acetyl)2-CO-(CH2)12-CO2H)-NH2
B5: Example 264 (peptide)
peptide: B2 peptide with K17I, E21K
modifications: Y-Aib-EGT-αMeF(2F)-TSD-OMeY-SI-αMeL-LD-Orn-IAQ-Aib-K((2-[2-(2-Amino-ethoxy)-ethoxy]-acetyl)2-(γ-Glu)-CO-(CH2)12-CO2H)FI-(D-Glu)-αMeY-LIEGGPSSGAPPPSK((2-[2-(2-Amino-ethoxy)-ethoxyl-acetyl)2-(γ-Glu)-CO-(CH2)12-CO2H)-NH2
B6: Example 260 (peptide)
peptide: YXEGTXTSDXSIXLDXKAQXEFIXXLIKGGPSSGAPPPS
modifications: Y-Aib-EGT-αMeF(2F)-TSD-OMeY-SI-αMeL-LD-Orn-K((2-[2-(2-Amino-ethoxy)-ethoxy]-acetyl)2-(γ-Glu)-CO-(CH2)12-CO2H)AQ-Aib-EFI-(D-Glu)-αMeY-LIK((2-[2-(2-Amino-ethoxy)-ethoxy]-acetyl)2-(γ-Glu)-CO-(CH2)12-CO2H)GGPSSGAPPPS-NH2
B7: Example 265 (peptide)
peptide: B6 peptide with E21K, K28E
modifications: Y-Aib-EGT-αMeF(2F)-TSD-OMeY-SI-αMeL-LD-Orn-K((2-[2-(2-Amino-ethoxy)-ethoxy]-acetyl)2-CO-(CH2)12-CO2H)AQ-Aib-K((2-[2-(2-Amino-ethoxy)-ethoxy]-acetyl)2-CO-(CH2)12-CO2H)FI-(D-Glu)-αMeY-LIEGGPSSGAPPPS-NH2 …
B8: Example 263 (peptide)
peptide: B6 peptide with K17I, E21K
modifications: Y-Aib-EGT-αMeF(2F)-TSD-OMeY-SI-αMeL-LD-Orn-IAQ-Aib-K((2-[2-(2-Amino-ethoxy)-ethoxy]-acetyl)2-(γ-Glu)-CO-(CH2)12-CO2H)FI-(D-Glu)-αMeY-LIK((2-[2-(2-Amino-ethoxy)-ethoxy]-acetyl)2-(γ-Glu)-CO-(CH2)12-CO2H)GGPSSGAPPPS-NH2
B9: Example 266 (peptide)
peptide: B6 peptide
modifications: Y-Aib-EGT-αMeF(2F)-TSD-OMeY-SI-αMeL-LD-Orn-K((2-[2-(2-Amino-ethoxy)-ethoxy]-acetyl)2-CO-(CH2)12-CO2H)AQ-Aib-EFI-(D-Glu)-αMeY-LIK((2-[2-(2-Amino-ethoxy)-ethoxy]-acetyl)2-CO-(CH2)12-CO2H)GGPSSGAPPPS-NH2 …
B10: Example 262 (peptide)
peptide: B6 peptide with K17I, X24K
modifications: Y-Aib-EGT-αMeF(2F)-TSD-OMeY-SI-αMeL-LD-Orn-IAQ-Aib-EFIK((2-[2-(2-Amino-ethoxy)-ethoxy]-acetyl)2-(γ-Glu)-CO-(CH2)12-CO2H)-αMeY-LIK((2-[2-(2-Amino-ethoxy)-ethoxy]-acetyl)2-(γ-Glu)-CO-(CH2)12-CO2H)GGPSSGAPPPS-NH2

How the values were obtained:
Assay in all cases: cell-based or functional assay
human GLP-1 receptor = human GLP-1 receptor (human, UniProt P43220 24-463)
human glucagon receptor = human glucagon receptor (human, UniProt P47871 26-477)
human GIP receptor = molecular target: T1, human GIP receptor (human, UniProt P48546 22-466)
T1 sequence (looked up): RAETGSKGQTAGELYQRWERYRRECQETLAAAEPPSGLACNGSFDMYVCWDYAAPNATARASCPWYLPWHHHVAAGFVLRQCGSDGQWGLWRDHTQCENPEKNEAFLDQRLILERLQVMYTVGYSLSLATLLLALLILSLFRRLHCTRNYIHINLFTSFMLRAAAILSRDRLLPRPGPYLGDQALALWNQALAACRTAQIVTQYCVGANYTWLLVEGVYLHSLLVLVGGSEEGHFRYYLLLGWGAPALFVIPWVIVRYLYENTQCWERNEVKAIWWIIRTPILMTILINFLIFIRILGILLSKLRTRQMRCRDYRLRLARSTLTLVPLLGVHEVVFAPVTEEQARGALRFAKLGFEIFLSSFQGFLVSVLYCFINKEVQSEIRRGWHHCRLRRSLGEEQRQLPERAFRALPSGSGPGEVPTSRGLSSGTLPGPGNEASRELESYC

| Binder | cAMP EC50 (1.0% HSA) (human GLP-1 receptor) [nM] | cAMP EC50 (1.0% HSA) (human glucagon receptor) [nM] | cAMP EC50 (1.0% HSA) (human GIP receptor) [nM] | cAMP Emax (1.0% HSA) (human GIP receptor) [%] |
| --- | --- | --- | --- | --- |
| B1 | 46.5 | > 9950 | 2.65 |  |
| B2 | 15.6 | > 9950 | 2.28 | 75.7 |
| B3 | 8.46 | > 9950 | 0.808 |  |
| B4 | 26.5 | > 9950 | 5.06 | 92.3 |
| B5 | 75.2 | > 9950 | 7.12 | 84.4 |
| B6 | 32 | > 9950 | 3.27 |  |
| B7 | 5.14 | > 9950 | 0.775 |  |
| B8 | 56.7 | > 9950 | 5.91 |  |
| B9 | 5.83 | > 9950 | 0.575 |  |
| B10 | 69.8 | > 9950 | 8.15 | 79.7 |
